Results published in PMC11953334, “Substrates bind to residues lining the ring of asymmetrically engaged bacterial proteasome activator Bpa” (Nature Communications, 2025).

What was measured:
20S CP α-subunit = molecular target: T1, 20S CP α-subunit (M. tuberculosis H37Rv, UniProt P9WHU1 1-248); assay: cryo-EM structure; details: both partners purified
T1 construct: also called proteasomal α-subunits; α-ring

cross-linking + SEC = molecular target: the molecule itself; assay: cross-linking + SEC
negative stain EM = molecular target: the molecule itself; assay: negative stain EM

T1 sequence (P9WHU1 whole entry): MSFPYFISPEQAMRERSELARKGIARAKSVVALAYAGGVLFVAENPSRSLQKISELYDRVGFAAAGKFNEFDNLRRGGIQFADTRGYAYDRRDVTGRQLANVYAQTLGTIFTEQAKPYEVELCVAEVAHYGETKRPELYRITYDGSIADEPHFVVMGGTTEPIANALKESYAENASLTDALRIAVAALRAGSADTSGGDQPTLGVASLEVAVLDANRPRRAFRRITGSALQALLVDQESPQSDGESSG

Row | Binder | binding result (20S CP α-subunit) | stoichiometry N (cross-linking + SEC) | stoichiometry N (negative stain EM)
1 | bacterial proteasome activator Bpa, full-length, wild-type (natural protein, also called wild-type Bpa ring; Bpa12; copies: 12) MVIGLSTGSDDDDVEVIGGVDPRLIAVQENDSDESSLTDLVEQPAKVMRIGTMIKQLLEEVRAAPLDEASRNRLRDIHATSIRELEDGLAPELREELDRLTLPFNEDAVPSDAELRIAQAQLVGWLEGLFHGIQTALFAQQMAARAQLQQMRQGALPPGVGKSGQHGHGTGQYL | binds | – | –
2 | truncated Bpa variant lacking the flexible N- and C-terminal segments (Bpa36-139) (domain or fragment, Dodecameric ring; also called substrate-captured Bpa; copies: 12) SLTDLVEQPAKVMRIGTMIKQLLEEVRAAPLDEASRNRLRDIHATSIRELEDGLAPELREELDRLTLPFNEDAVPSDAELRIAQAQLVGWLEGLFHGIQTALFA | – | 12 | 24
